The target of this test is T1, CD93 (Homo sapiens, UniProt Q9NPY3).
T1 construct: expressed in transfected cells; host or cells: 293 cells (CD93+ 293)
T1 sequence (Q9NPY3 22-652): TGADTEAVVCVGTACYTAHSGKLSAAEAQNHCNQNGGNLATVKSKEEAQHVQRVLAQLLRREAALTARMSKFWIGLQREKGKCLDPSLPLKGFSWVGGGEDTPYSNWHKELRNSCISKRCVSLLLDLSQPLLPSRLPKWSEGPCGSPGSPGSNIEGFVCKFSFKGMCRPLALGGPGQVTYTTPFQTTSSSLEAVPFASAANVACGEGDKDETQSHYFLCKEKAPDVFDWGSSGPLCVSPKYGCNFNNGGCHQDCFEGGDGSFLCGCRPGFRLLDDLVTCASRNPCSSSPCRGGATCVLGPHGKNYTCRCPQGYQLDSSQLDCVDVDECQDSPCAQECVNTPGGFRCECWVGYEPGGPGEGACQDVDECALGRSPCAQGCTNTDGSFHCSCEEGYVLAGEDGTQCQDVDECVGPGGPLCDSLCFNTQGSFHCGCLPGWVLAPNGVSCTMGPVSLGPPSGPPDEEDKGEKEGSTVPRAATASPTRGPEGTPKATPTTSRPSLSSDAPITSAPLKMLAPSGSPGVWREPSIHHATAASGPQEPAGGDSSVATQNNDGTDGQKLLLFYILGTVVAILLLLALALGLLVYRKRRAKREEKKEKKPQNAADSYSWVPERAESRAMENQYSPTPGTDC
Kind of test: binding of Ig fusion proteins to CD93 transfectant (flow cytometry). The settings on record: flow cytometry. The source says:
FIGS. 10A-10B show identification of the binding domain on IGFBP7 for CD93. Each extracellular domain for IGFBP7, including insulin binding (IB). Kazal, and Ig, was swapped with the corresponding domain on IGFBPL1 using PCR cloning and fused to a C-terminal Ig. These chimeric mutants were transiently expressed in HEK293T cells and supernatants were used to stain CD93 transfectant. FIG. 10A depicts whether multiple chimeric IGFBP7 mutants bind to CD93. FIG. 10B depicts various human genes containing IB-domain constructed onto an expression vector containing Fc-Tag. Constructs were transiently transduced into HEK293T cells to produce Fc tagged fusion proteins in the supernatant. Supernatant was used to stain CD93 transfectant by flow cytometry. Binding index represents the ratio of binding MFI of CD93 transfectant to control cells.
The IGFBP7-IGFBPL1 chimeras were generated by two-step PCR. […]
Cell surface and intercellular staining and analysis by flow cytometry were followed the protocol previously described (71). Dead cells were excluded with SYTOX® (Blue Dead Cell Stain Kit (Thermo Fisher Scientific). Flow cytometric analysis was conducted with a BD FACS Calibur or a BD LSRFortessa™ cell analyzer (BD Bioscience, Franklin Lakes, N.J. USA), and then data were analyzed by FlowJo software (Tree Star Inc.)
Background: Flow cytometry measures light scatter and fluorescence of single cells or particles in a stream.

B1: IGFBPL1: a IGFBP-related protein that does not bind CD93 (protein, UniProt Q8WX77 26-278, looked up)
Insulin-like growth …: LGIRDVGGRRPKCGPCRPEGCPAPAPCPAPGISALDECGCCARCLGAEGASCGGRAGGRCGPGLVCASQAAGAAPEGTGLCVCAQRGTVCGSDGRSYPSVCALRLRARHTPRAHPGHLHKARDGPCEFAPVVVVPPRSVHNVTGAQVGLSCEVRAVPTPVITWRKVTKSPEGTQALEELPGDHVNIAVQVRGGPSDHEATAWILINPLRKEDEGVYQCHAANMVGEAESHSTVTVLDLSKYRSFHFPAPDDRM
B1: the “binding to CD93 293 cells / CD93 transfectant” value is recorded as “does not bind”.

Source of the values: patent US20220235136A1, “METHODS AND COMPOSITIONS FOR TREATING A DISEASE OR DISORDER” (YALE UNIVERSITY, priority 2019, published 2022).
